This note sets out measurements from patent US20240158477A1 (BIODURO JIANGSU, published 2024).

For test [1], the target named is T1, COVID-19 S.P. RBD (Cat. #40592-V08B, SB) (SARS-CoV-2, UniProt P0DTC2 319-541).
Test [2] addresses T1, COVID-19 S.P. RBD (Cat. #40592-V08B, SB). The source holds these as a separate data set.
In test [3] the target is SARS-CoV-2 S protein (wildtype) (SARS-CoV-2, UniProt P0DTC2 14-1273). The test is described as follows: cell-based or functional assay.
Test [4] concerns the target RBD-Fc (SARS-CoV-2 S protein amino acids 319-541 with human IgG1 Fc) (SARS-CoV-2; human, UniProt P0DTC2 319-541).

Where a chain is given by its changes, count along the chain named. Read-outs that look alike come from different tables or passages of the source.

B1: Fc tagged nanobody VHH43 (Fc fusion)
chain: EVQLVESGGGLVQPGGSLRLSCAASGFISDADIMGWFRQAPGKGRELVASINSYDSITYYPDSVEGRFTISRDNAKRMVYLQMNSLRAEDTAVYYCAVRVHSRDFSYWGQGTQVTVSSGSGGGGSGGGGS
On to B1, for which the dissociation constant (Kd) in test [1] is 1.44 nM.

B2: Fc tagged nanobody VHH79 (Fc fusion)
chain: EVQLVESGGGLVQPGGSLRLSCAASGFTSRNYFMGWFRQAPGKGRELVATINSLSSITYYPDSVEGRFTISRDNAKRMVYLQMNSLRAEDTAVYYCAVYTPTTGPGEGSYTPWHDYWGQGTQVTVSSGSGGGGSGGGGS
B2 registered a Kd in test [1] of 3.44 nM.

B3: Fc tagged nanobody VHH35 (Fc fusion)
chain: EVQLVESGGGLVQPGGSLRLSCAASGSIYSFNFMGWFRQAPGKGRELVATINSFDDITYYPDSVEGRFTISRDNAKRMVYLQMNSLRAEDTAVYYCAVLGERTGISYGSAFDYWGQGTQVTVSSGSGGGGSGGGGS
As to B3, the Kd in test [2] was found to be 0.535 nM.

B4: Fc tagged nanobody VHH80 (Fc fusion)
chain: EVQLVESGGGLVQPGGSLRLSCAASGFISNFNLMGWFRQAPGKGRELVATINSFDDITYYPDSVEGRFTISRDNAKRMVYLQMNSLRAEDTAVYYCAAEVRSSLDYALWTSRRSAFSYWGQGTQVTVSSGSGGGGSGGGGS
In turn, B4 displayed a Kd in test [1] of 4.27 nM.

B5: Fc tagged nanobody VHH60 (Fc fusion)
chain: EVQLVESGGGLVQPGGSLRLSCAASGRTFRVNLMGWFRQAPGKGRELVASINGFDDITYYPDSVEGRFTISRDNAKRMVYLQMNSLRAEDTAVYYCAAYDSDYDGRLFNYWGQGTQVTVSSGSGGGGSGGGGS
In the case of B5, in test [3], the “IC50, authentic SARS-CoV-2 neutralization on Vero-E6 cells (viral RNA by RT-PCR)” value was 1.53 nM and the “IC50, pseudovirus neutralization (luciferase activity in Caco-2 cells)” value came out at 7.63 nM. Moreover, the concentration for a half-maximal effect (EC50 (read off the curve)) in test [4] is roughly 0.4 nM. In test [1], binding was characterised by a dissociation constant (Kd) of 2.56 nM.

B6: Fc tagged nanobody VHH34 (Fc fusion)
chain: EVQLVESGGGLVQPGGSLRLSCAASGFIYSFNIMGWFRQAPGKGRELVASINWFSDITYYPDSVEGRFTISRDNAKRMVYLQMNSLRAEDTAVYYCAAYLLRGDDRYYATYSYWGQGTQVTVSSGSGGGGSGGGGS
B6 yielded a Kd in test [1] of 2.79 nM.

B7: Fc tagged nanobody VHH82 (Fc fusion)
chain: B6 chain with N52S, W53S, F54Y, S55D
In turn, B7 came in with a Kd in test [1] of 2.29 nM.
